Reference: article doi:10.1101/2023.12.10.570967

Target: Drosophila Eggless/SetDB1 tandem Tudor domains (3TD, aa 444-700), wild type (Drosophila) (UniProt Q32KD2)
Assay: SPR

Sequence of UniProt Q32KD2 (Q32KD2 444-700): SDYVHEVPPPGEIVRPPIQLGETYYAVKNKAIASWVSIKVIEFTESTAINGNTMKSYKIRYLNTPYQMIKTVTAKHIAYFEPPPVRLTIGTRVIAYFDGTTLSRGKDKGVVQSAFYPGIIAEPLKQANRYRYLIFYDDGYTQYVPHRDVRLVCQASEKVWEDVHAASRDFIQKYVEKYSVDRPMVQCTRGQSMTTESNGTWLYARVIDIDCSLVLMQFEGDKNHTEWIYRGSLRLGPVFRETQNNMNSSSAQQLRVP

H3K14ac peptide
Kd: 486 µM
